Measured values as given in the nanobody polyreactivity screen of Harvey et al. (2022).

Experiment: yeast display, Sf9 membrane polyspecificity reagent, FACS + sequencing; frameworks hold sequencing errors
Method in brief: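 Genes from sorted yeast were amplified by colony PCR, read by MiSeq 2 × 250 sequencing and filtered on CDR length. These cells carried a synthetic nanobody library in Saccharomyces cerevisiae BJ5465 and were sorted by FACS into low and high (top ~1%) gates on anti-HA and streptavidin fluorescence. Polyreactivity is labelled according to the gate of origin.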

Sequence	polyreactivity (PSR sort gate)
QVQLVESGGGLVQAGGSLRISCAASGFIFRYNAMGWYRQAPGKERELVAAINSGDSTNYADSVKGRFTISRDNAKNTVYLQMNSLKPEDTAVYYYWGQGTQVTVSS	low polyreactivity
QVQLVESGGGLVQAGGSLRLSCAASGRTFVWNVMGWYRKAPGKEREFVAAISGGSTYYADSVKGRFTISRDNAKNTVYLQMNRLKPEDTAVNYCAAASKLHPRYEYWGQGTQVTVSS	low polyreactivity
QVQLVESGGGLVQAGGSLRLSCAASGSTINYYAMGWYIQAPGKERELVARITWSGARTYYADSVKGRFTISRDNAKNTVYLQMNSLKPEDTAVYYCAAGYLALESPWYYRWYDYWGQGTQVTVSS	low polyreactivity
QVQLVESGGGIVQAGGSFRLSCAASGSIFVVYAMGWYRQAPGKERELVAAITSGGSTYYADSVKGRFTISRDNAKNTVYLQMNSLKPEDTAVYYCATTYRDGVYELTTFDYWGQGTQVTVSS	low polyreactivity
QVQLVESGGGLVQAGGSLRLSCAASGRTFAPYAMGWYRQAPGKERELVAAITSGGSTYYADSVKGRFTISRDNAKNTVYLQMNSLKPEDTAVYYCAAKFVGTTVSEYGYWGQGTEVTVSS	low polyreactivity
QVQLVESGGGLVQAGGSLRLSCAASGFTFDIYAMGWYRQAPGTERELVATISFTGDTTSYADSVKGRFTISRDNAKTTVYLQMNSLKPEDTAVYYCAADGSYPLSVGRENLHYAEFDYWGQGTQVTVSS	low polyreactivity
QVQLVESGGGLVQAGGGLRLSCAASGFTFTKYAMGLYRQAPGKERELVAAITSGTSTYYADSVKGRFTISRDNAKNTVYLQMNSLKPEDTAVYYCAAPLYGRYSYGYWGQGTQVTVSS	high polyreactivity
QVQLVESGGGLVQAGGSLRLSCAASGRIFDIYAMGWYRQAPGKERELVAAITRGGSTYADSVKGRFTISRDNAKNTVYLQMNSLKPEDTAVYYCAARPRLPRQIGGDGHLDDYWGQGTQVTVSS	high polyreactivity
QVQLVESGGGLVQAGGSLRLSCAASGRIFPVYAMGWYRQAPGKERELVATISYSGSSTYYADSVKGRFTISRDNAKNTVYLQMNSLKPEDTAVYYCNADAFGPPGVQYYYWGQGTQVTVSS	low polyreactivity
QVQLVESGGGLVQAGGSLRLSCAASGIIFYRYAMGWYRQAPGKERELVAAISSSGGSTYYADSVKGRFTISRDNAKNTVYLQMNSLKPEDTAVYYCARVTTVYDGRGFVDVKRGYWGQGTQVTVSS	high polyreactivity
QVQLVESGGGLVQAGGSLRLSCAASGNTFYRNAMGWYRQAPGKERELVAGISNGGSTNYADSVKGRFTISRDNAKNTVYLQMNSLKPEDTAVYYCAKDEPKVSRAFDYWGQGTQVTVSS	low polyreactivity
QVQLVESGGGLVQAGGSLRLSCAASGSIFKYYAMGWYRQAPGKERELVAAITTTGGITYYADSVNGRFTISRDNAKNTDYLQMISLKPEDTAVYYCNAYYPIRSSPYGYYYCGQGTQVTVSS	high polyreactivity
QVQLVESGGGLVQAGGSLRLSCAASGSIFVTYAMGGYRQAPGKERELVAAISTSGGSTYADSVKGRFTISRDNAKNTVYLQMNSLKPEDTAVYYCNADDPGYAVPWYWFKFDYWGQGTQVTVSS	low polyreactivity
QVQLVESGVGLVQAGGSLRVSCAASGSICNYYAMVWYRQAPGKERELVATISSGGNTKYADSVKRRFTISRDNAKNTVSLQMNSQKPEDTAVYYCAARWQHSGYRDRYWYDYWGQGTQVTVSS	low polyreactivity
QVQLVESGGGLVQAGGSLRLSCAASGRTFYYYAMGWSRPAPGKERELVAGINSGGSTNYADSVKGRFTISRDNAKNTVYLQMNRLKPEDTAVYYCAVEDLGSEGWGWYKEMDYWGQGTQVTVSS	low polyreactivity
QVQLVESGGGLVQAGGSLRLSCAASGFTFSSYAMGWYRQAPGKERELVAAISTRGGSTYYADSVKGRFTISRDNAKNTVYLQMNSLKPEETAVYYCAARYGTSYKVRWTYYAFDYWGQGTQVTVSS	low polyreactivity
QVQLVESGGGLVQAGGSLSLSCAASGFTFGSNDMGWYRQAPGKERELVAAIDGSGDTYYADSVKGRFTISRDNAKNTVYLQMNSLKPEDTAVYYCARDDNPIYSGVTYDYWGQGTQVTVSS	low polyreactivity
QVQLVESAGGLVQAGGSLRLSCAASGSTFAIKAMGWYRQAPGKERELVAAISSSGSTNYADSVKGRFTISRDNAKNTVYLQMNSLKQEDTAVYYCAADRVWGTPQAYVPSHFDYWGQGTQVTVSS	low polyreactivity
QVQLVESGGGLVQAGGSLRLSCAASGNTIIRYAIAWYRQAPGKERELVAAISYSGGRTYYADSVKGRFTISRDNANNTVYLQMNSLKPEDTAVYYCNAASRYGGDYWGQGTQVTVSS	high polyreactivity
QVQLVESGGGLVQAGGSLRLSCAASGLIFGVNDMGWYRQAPGKERELVAAITSRGGSTYYADSVKGRFTISRDNAKNTVYLQMNSLKPEDTAVYYCAAKYAYYEPYSWRPQRTYNYWGQGTQVTVSS	high polyreactivity
QVQLVESGGGLVQAGGSLRLSCAASGNIFVPNAMGWYRQAPGKERELVAAIRRGGSTNYADSVKGRFTISRDNAKNTVYLQMNSLKPEDTAVYYCAAYYTYLYHYGTFKIYNYWGQGTQVTVSS	low polyreactivity
QVQLVESGGGLVQAGGSLRLSCAASGFTFAGYAMGWYRQAPGKEMELVAAINYRGVRTYYADSVKGRFTISRDNSKNTVYLQMNSLIPEDTAVYYCAALPFLPGGGYVIHRFYYWGQGSQVTVSS	high polyreactivity

Sequence	polyreactivity (PSR sort gate)
QVQLVESGGGLVQAGGSLRLSCAASGSIINRYAMGWYRQARGKERELVAAITQSGGRTYYADSVKGRFTISRDNAKNTVYLQMNSLKPEDTAVYYCAKAGWPGSYIYYRFRVGYDSWGQGTQVTVSS	high polyreactivity
QVQLVESGGGLDQAGGSLRLSCADSGSLSDWNAMVSYRQAAGKEREWVAAINWSGDTTYYADSVKGRFTISRDNAKNTFYLQMNCLNPEDTAVYYCAAELVVDYDWYDYWGQGTQVTVSS	high polyreactivity
QVKLVDSGGGLVQAGGSLRLSCAASGFIFYSYDMGWYRQAPGKERELVATITSGDDTYYADSVKGRFTISRDNAKNTVYLQMNSQKPEDTAVGYWGQGTQVTVSS	low polyreactivity
QVQLVESGGGLVQAGGSLRLSCAASGSTFWYYGMGWYRQAPGKEMELVARINWSTGRTYYADSVKGRFTISRDTAKNTVYLQMNSLKPEDTAVYYCNALNPYKGQEAHYDYWGQGTQVTVSS	high polyreactivity
QVQLVESGGGLVQAGGSLRLSCAASGSTFDYYTMGWYRQAPGKERELVAAITSGGSTYYADSVKGRFTISRDNAKNTVFLQMNSLKPEDTAVYYCAAGYIWFRKFQFDYWGQGTQVTVSS	high polyreactivity
QVQLVESGGGLLQAGGSLRLSCAASGRIKDNGMGWYIKAPGKERELVAAITLSAGRTYYADSVKGRFTISRDNAKNTVYLQMNSLKPEDTAVYYCAAQAERYGYEYWGQGTQVTVSS	low polyreactivity
QVQLVESGGGLVQAGGSLRLSCAPSGIIFPEYDMGWYRQPPGKERELVAAITKSDGRTYYADSVKGRFTISRDNAKNSVYLQMNSLKPEDTAVYYCNADPSVVAYVGFVSWGQGTQVTLSS	low polyreactivity
QVQLVESGGGLVQAGGSLRLSSAASGRTFGFNPMGWYRQAPGKERELVAAISSSSSSTYYADSVKGRFTISRDNAKNTVYLQINSLKPEDTAVYYCAKQEPYPFGGYYEYDYWGQGTQVTVSS	low polyreactivity
QVQLVESGGGLVQAGGSLRLSCAASGFTFSPYTMGWYRQAPGKERELVATIRYDGTSTYYADSVKGRFTISRDYAKNTVYLQMNSLKPEDTAVYFCAADIWRVYSTFYYWGQGTQVTVSS	low polyreactivity
QVQLVESGGGLVQARGSHRISCAASGRTITFNAMGWYRQAPGKQRELVAGIDLSTTSTYYADSVKGRFTISRDNAKNTVYLQMNSLKPEDCAVYYCNAYRNADYDYWGQGTLVTVSS	low polyreactivity
QDQLVESGGGLVQAGGSLRLSCAASGIIFYVYAMGWYRLAPGKERELVAAISRSGGRTYYADSVKGRFTISRDNAKNTVYFQMNSLKPEDTAVYYCAADAYRTPTHYYWGQGTQVTVSS	high polyreactivity
QVQLVESGGGLVQAGGSLRLSCAASGRTFFVNAMGWYRPAPGKERELVAAITWSGGSTYYADSVKGRFTISRDNAKNTVYLQMNSLKAEDTAVYYCNADYQWYLGGYDYWGQGTQVTVSS	high polyreactivity
QVQLVESGGGLVQAGGSLRLNCAASGITYTQYAMGWYRQAPGKERELVAAISKRGGRTYYADSVKGRFTISRDNAKNTVYLQMNCLIPEDTAVYYCATVPYGEVDYWGQGTQVTVSS	high polyreactivity
QVQLVESGGGLVQAGGSLRLSCAASGFIFYTYAIGWYRQAHGKERELVAAISRGGRTNYADSVKGRFTISRDNAKNSVYLQMNSLKPEDPAVYYCPSSYSHRYDYWGQGTQVTVSS	high polyreactivity
QVQLVESGGGLVQAGGSLRLSCAASGSIFGTNAMGWYRQAPGKERELVAAISFSGGDTYYADSVKGRFTISRDNAKKTVYLQMNRLKPEDTAVYYCAAEVPDTDAYGYWGQGTQVTVSS	low polyreactivity
QVQLVESGGGLVQAGGSLRLSCAASGSIFGRYAMGWYRQAPGKERELVAAISANGGSTYYADSVKGRFTISRDNAKNTVYLQMNSLKPEDTAVYYCAAGSTRGYKLGYWGQGTQVTVSS	high polyreactivity
QVQLVESGGGLVQAGGSLRLSCAASGTFQYNAMGWYRQAPGKERELLAAITSGGSTNYADSVKGRFTISRDNAKNTVYLQMNSLKPEDTAVYYCAAVRRYRASRGSLYYYWGQGTQVTVSS	high polyreactivity
QVQLVESGGRLVQAGGSLRVSCAASGSTFLFYAMVWYRQAPGKERELVATISRGGSTYYADSVKGRFTISRDNAKNTVYLQMNSQIPEDTAVYYCAARATRVTIAPRYGYWGQGTQVTVSS	low polyreactivity
QVQLVESGGGLVQAGGSLRLSCAASGSIFDTNAMGWYRQAPGKERELVAAISFSGVRTYYADSVKGRFTISRDNAKNTVYLLMNSLKPEDTAVYYCNRLRISPGWRYNYWGQGTQVTVSS	high polyreactivity
QVQLVESGGGLVQAGGSLRLTCAATGRIFSRYAMGWYRQAPGKERELVAAISRSGGSTYYADSVKGRFTISRDNAKNTVYFQMNSLKPEDTAVYYCAARNVFSYPPGSYYYWGQGTQVTVSS	high polyreactivity
QVQLVESGGGLVQAGGSLRLSCAASGSTFTDNGMVWYRQAPGKARELVAGISYSGGSTYYADSVKGRFRISRDNAKNTVYLQMNSLKPEDTAVYYCAADRGGYYLSEYDYWGQVTQVTVSS	low polyreactivity
